Measured values: PMC12817929

Molecular target: HEV-ORF2 mutant lacking all three KFERQ-like motifs (ORF2ΔCMA) (hepatitis E virus genotype 3 (HEV-3), KernowC1-p6 strain)
Assay: co-IP; HEK-293T transfected with plasmids for HSC70 and GRP75 together with WT ORF2 or ORF2ΔCMA for 48 h, NP-40 lysis, IP with Mab-2G8, blots for HSC70 and GRP75

## GRP75 expressed from plasmid in HEK-293T cells together with HSC70 and ORF2 (tag not stated) (from UniProt P38646 47-679) (natural protein)
  decrease of co-precipitated GRP75 against wild-type ORF2: 50%
